For 22 sequences, protein production results are on record in a protein production outcome set (Wang et al. 2014).

The data set is described as follows: label from the status in PepcDB records.
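Further: failed if final PepcDB status was selected cloned or expressed and not failed if soluble or beyond.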

In the case of “MARLGKKSRNGAFWAKALERAHLGVWDWDLRSGDCFYSATWARMLGYEEDELANTSDLWLQLTHPDDRERALASGDRHIAGLTDAIETELRLKHKLGHWVWVLDRGGIVESGADGRPLRLMGVQTDISKQKAAEAALEQVTMRFRLALAASGTGIWHYDIATHKSYWDARTREMFGVVADADEVAADLWHSFLHPDDKEATERAHWPSPGSNGVTASQYRIVKRDGEIRHIESLVRYVAAAGAAGQILGTVRDITEDKLREQELAFAARHDALTGLWNRAAFDRLLADHIAKGVPLAVFYVDLDYFKALNDFAGHAAGDLALKSVAAGIGRCLPPSAHAARLGGDEFALLVPHCDAAQAERLAAAILAAVRSADLGLAATARRLAASIGIAIVNDRATTVADALACADDACYAAKAAGRDRFAVFSAEAATGGLNAARLAADTVDAMEDGRLKLFGQEIHRLGRPWQENRHVEVLARLVGRGGKLIPPSEFIPAAERFGIAARLDRWIIRTALSRHGAAMKSGAITLGFNLSAQTLSDPGLWDFVDSIIEETGAPHSGIGFEITETAAVTNFDAAETFVRKARERRCKVSLDDFGAGMSSFEYLRRFPVDAIKIDGSFIEHMAESRFDREIVSAISGIARSVGCTVVAEKIEQAETLGILQTMGVDFGQGFLLHRPEPLEQIVARAAGPARAAPARKAS”, the protein production result is recorded as “failed”.
For the sequence “MARPKSKTKKILFAVEIIVLLLFIGGLYVYGQLNSKLDKINQPVLDDSKIKVNQEVQDSIDSQESTLTGYTTYALFGIDHRDKNTALGGENSDTIIIASVNNDTKDVKLVSVYRDTLLNLGNDTYSKANAAYAYGEAEQAITMLNTNLDLNISEYATVNFNALTTIIDDLGGLDMDMSYAEIVHMNNYCVETSEETGKDYTPIELPDRPDDIEAVQYHYHLNGVQATSYCRIRYTASLDMGRTERQRRVIQMIVSKAKSAGLGKIFKIMDDVFPMVTTSMTKDEILQLLPTLIGYSVDDTTGFPTSYKFSNVKGSIIVPTTLETNVIELHKFLYGDEAYTPSATVKANSEKILEIVGGESSLDDKQATVEENTTNDTVIFEKNGSGWSDTSSDYGSDSDSSGGGDYSGDETDNSGGSSSGGGDYSNDGSDNSGGDSSGGEDYEGPTTPEPDYGGDDNGGGDTGGDESGGGDTGGDESGGGDIVDEGSGDDSGAAAEATGTPDAA”, the protein production entry is listed as “failed”.
To “MARPRKPTNVLELTGAFKKDPQRRREDAEPVGELTAPPAHINGAVLHAWKEIAKYAPRDVLTNSDRLSLELAANLLAQFRNDPLDFPAAKLVRLEAMLGKFGMTPADRSKVGGGKKDAPKGNAFAEL” belongs “failed”; to “MARRDISGAVDFAYLEGFAAGDFAVVDEVLALFREQAALWAPMLDPTHPGWKDAVHTVKGAARGVGAFNLGEVCERCEAGQESLEGVRTALDAALLDIAAYAHEQALRSLKG”, “not failed”.
To “MARRWTPQRFVMLRRVRVVICVTTVTLASVLAFGVGARKTVALTVNGETTTVTTYAMSVDRLLQEQQVKVKTHDLVESTSSGTLQNHSVVTVRSAYQTTVTIDGQEVPFWTVATSADQLLGFFEANEAEASKITVNIDNVYNKLTGGLVINQNGPVTVIADGKSSVSPNGKLPAASILDSKGIILNKEDRVSVEKDNGETILRVQRVTHDEQTRTKTVPHGTQTIIDASLQPGEAVVRQEGEDGEIQQTYDVTYVDGVEESEKLINEVTTKIAIDQIIAVGPEKTESSDADNADNGQADSGSNDSDSSKSDKKDESDKKDSDSTDKKNDSSEKNDSTSTPTTEPTQTPTPTPTPTQQQQQTQTTTNPSDGCRLYHPSAAQAQTYAAGAAAQYGWTGQHWTNLVKLWNRESSWLWYSENASSGAYGIPQSLPGSKMASFGANWRDDAAVQIDWGLNYIAQRYGNPTKAREHSEQYGWY” belongs “failed”; to “MARSIDYGNLMHRAMRGLIQSVLEDVAEHGLPGAHHFFITFDTTHPDVAMADWLRARYPQEMTVVIQHWYENLSADDHGFSVTLNFGNQPEPLVIPFDAVRTFVDPSVEFGLRFETHEEDEEEETGGDEDPDGDDEPPRHDAQVVSLDKFRKLEHHHHHH”, “failed”.
To “MARSSSFLDNLLTSPSTERYRVGLSVLFLLCVWLVVGSFSQGLPNAMLLMAAAVIGGYMAINIGANDVANNVGPAVGSGALSLGAAVLLAAVFEAAGALIAGGDVVSTIKGGIIDPTSLEDPRAFVWLMTAALLAGALWLNLATWMGAPVSTTHSIVGGVLGAGIAAGGWAIADWAVMGKIAASWVISPVLGGALAALFLFAIKKTVLYRQNLVSSARTFVPWLVAIMAWAFATYLMIKGVKKIVKVDMVEASVIGLIVAGVVFFVMRTLVGRKASTMENSAQGVNTLFTWPLIFAAALLSFAHGANDVANAIGPLAAINDAIQAGGGVVTSAKIPLWVMLVGALGLAVGLMLFGPRLIKTVGSEITELDKTRAFCIALSAALTVILASQLGLPVSSTHIAIGGVFGVGFLREYLKSNYATQLHKIIEQHDPTDQERLKPFLDDFRNASVEEMEKLLKQAKKKKQQVPLSKSERKRLKKIYREEMVKRSHLVKIAAAWIITVPASAIMAAFLFFTLRGLMV” belongs “failed”; to “MASDAPTGHVSDLDWLMSGLVQRVPHTTSAVLLSCDGLVKSVHGLDPDSADHMAALASGLYSLGRSAGIRFGDGGDVRQVVVELDSTLLFVSTAGSGTCLAVLAGREADAAVLGYEMAMLVKSVRPYLMTAPRQAAAQPPAMRP”, “failed”.
Regarding “MASEHHEALNLYAVRVARGEGVKQDFARAASLFRRADRCGFNCEPVYDDMVNDFRDKAFGMELVSSKRAFLKALRPETAEARCTVGEAFIGQGDADSLRTGRELLTSAATLGSGKAMYLLGVLCRDGKGVAANAERAFMWFSLAASCGFAKAESERVNAEGKLDDAGRTRAMQLAARWRRQYLAPVCLEHHHHHH”, the protein production result was “failed”.
For the sequence “MASEREQISRKVALIALIANLILMAGKVFFGLVGDSEAVFADGIHSAADVVASIAVLAVIGISNKPPDQDHPFGHGKAEVISEAIVGIILVIVSVYILIEAILSFVKGPSVPQYSALFAALISYVAKEILYRYSIKQGKKWNSKAIIAIAYDHKGDIVASLAAFIGVLLAIIGNSRGWSYLLYADAIASAIVAYLIFKISMELIRPSVGVLMEKSVDPELIEEYKAVIFQCDQVKRIDRIRAREHGHYKLLDVRLSLDHDLTIKQGHDIAREIRNEIKRQFSDVEEVLIHVNPYFEE”, the protein production entry is “failed”.
To “MASFQQYKTKTGYKWLFKMGVGIDPKTGNRKTTTRRGFKTKKEAVAAAAEFQKEIDNNALARNDITFEDVFKEWWDVHSKTIKRSTRYRKLSNFKKHILPHFGKLKIKDITRAYCQKVINLIAQDIDSVQNVKIQANLVFKYALRMEYITKNPMEFVVIPKKEENFLSQEEEKRNFWEKDEIKTFLEKAHSQLAPQDYVMFYVLIFTGMRKGELIALEWKDVDLKEKTINIKQTMFFENGKEVIQTTKKYHSKRIITIDDQTAQILKKWRTQQKEMLLSNGITSEAKYVLIRGDMRPLRLAYPNDLLNRMITKNKLHRITIHGFRHSHASILFEAGASIKEVQARLGHKEIQTTMNIYTHVTKTAKAKTAETFKKYMEL” belongs “failed”.
To “MASFVESGWQYLVTHFSDFQLACIGSFLLHESVFFLSGLPFIFLERQGFLSKYKIQTKNNTPAAQGKCITRLLLYHFSVNLPLMLASYPVFRAMGMRSSFPLPSWKEVSAQILFYFIIEDFVFYWGHRILHSKWLYKNVHSVHHEYATPFGLTSEYAHPAEILFLGFATIVGPALTGPHLITLWLWMVLRVLETVEAHCGYHFPWSLSNFLPLYGGADFHDYHHRLLYTKSGNYSSTFVYMDWIFGTDKGYRRLKTLKENGDMKQT” belongs “failed”.
To “MASGSPPSQPSPASGSGYVPGSVSAAFVTCPNEKVAKEIARAVVEKRLAACVNLIPQITSIYEWKGKIEEDSEVLMMIKTQSSLVPALTEFVRSVHPYEVAEVIALPVEQGNPPYLHWVHQVTESV” belongs “not failed”.
For the sequence “MASIVMLLRALMSCRLTPKDEPETSDSSSSAAKLYRNIVGDENVTRKRISVVDTSHLGDNHEFIIETTCGSNDMDEGFYWIIVRNHLM”, the protein production entry is on record as “failed”.
To “MASKEAHVSLARGEQSVKRIKEFDPGKDSFSVLLLGIDAREKNGETVDQARSDANVLVTFNRKEKTAKMLSIPRDAYVNIPGHGYDKFTHAHAYGGVDLTVKTVEEMLDIPVDYVVESNFTAFEDVVNELNGVKVTVKSDKVIQQIKKDTKGKVVLQKGTHTLDGEEALAYVRTRKADSDLLRGQRQMEVLSAIIDKSKSLSSIPAYDDIVDTMGQNLKMNLSLKDAIGLFPFITSLKSVESIQLTGYDYEPAGVYYFKLNQQKLQEVKKELQNDLGVLEHHHHHH” belongs “not failed”; to “MASKKPDKTYEEMVKEVERLKLENKTLKQKVKSSGAVSSDDSILTAAKRESIIVSSSRALGAVAMRKIEAKVRSRAAKAVTEQELTSLLQSLTLRVDVSMEELEHHHHHH”, “not failed”.
To “MASLAFIQAFLESFKGFLSQATLISVLIASVLILFCAILLLLALLLRNRLASYIATAAFLGAFLSMPFVLNILLTQAIYPIETRILHANPLSYSNAFSLQVGVKNHSKFTLNKCVLRLEVLKNPHNFVEEHAFKWFVKKSYEKIFKEKILPKESKVFSFFIDNYPYSKTAPYQVSLFCL” belongs “failed”.
Consider “MASLGFNLGFTFSNAQIQQHRKVSGGGRARVISCNSSSSSSSQASSPQGISAVTPLEIELEFFGPKPGSDGSYPVDKAKAVSGDKLLRSIMQDNKIELYAAYGKVMNCGGGGSCGTCIVEILDGRDLLNERTDTENRYLKKKPESWRLACQTIVGNKENSGKSALDIGCRAADSTVEEVN”, for which the protein production result is on record as “failed”.
Turning to “MASLGSAAAGEPATGAEAEPGPPAPPPPPPPPPAPSPSALGPLLPLQREPLYNWQATKASLKERFAFLFNSELLSDVRFVLGKGRGAAAAGGPQRIPAHRFVLAAGSAVFDAMFNGGMATTSAEIELPDVEPAAFLALLRFLYSDEVQIGPETVMTTLYTAKKYAVPALEAHCVEFLTKHLRADNAFMLLTQARLFDEPQLASLCLDTIDKSTVDAISAEGFTDIDIDTLCAVLERDTLSIRESRLFGAIVRWAEAECQRQQLAVTFGNKQKVLGKALSLIRFPLMTIEEFAAGPAQSGILSDREVVNLFLHFTVNPKPRVEYIDRPRCCLRGKECCINRFQQVESRWGYSGTSDRIRFTVNRRISVVGFGLYGSIHGPTDYQVNIQIIEYEKKQTLGQNDTGFSCDGTANTFRVMFKEPIEILPNVCYTACATLKGPDSHYGTKGLKKVVHETPAASKTVFLFFSSPGNNNGTSIEDGQIPEIIFYT”, the protein production result is “failed”.
To “MASMTMTSSFLPTVSNLPANISSNSRRSLTVVKASGSENTTSLENKKQEQSMKMRRDLVFTAAAAAVCSLAKVAMADDEPKRGTEAAKKKYAPVCVTMPTAKICRN” belongs “failed”.
Regarding “MASRSKPSVRAFARQVHLWLGLSIGVLFAVVGLTGSILVFYTAIDDALHPEIRLRGAAPPPSWEQVYQTARATYPDKAGPWRFEVTEAGGDIPARYYKPPERADRDFAPMMVWFSADGGRVIRRDYWGEYAMTWVYDLHHRLLLQATGGAILGWSGLAMLALMVAGLTAWWPRRGGWRKALQMKPRAAPLRKLYDWHKQTGLWSFGLLVLLTLTGVLLALPKESEIALRPILGPPAGAPTIDKSITFDPGTRISVDQAVAIAQGALPGARLAWIETPSTDSGVYRLRLQTPGDPSRRFPHSFVWITPATGEVLAMTDARQAGAHDVLLNWTHPLHDASAGGLPARLLAVLVGLAPSALLILGFMRWRQRLRPQERKLSDHS”, the protein production result is listed as “failed”.
Consider “MASRSRRPERRQEPLSRERIVGAAVELLDTVGERGLTFRALAERLATGPGAIYWHITGKAELLGAATDAVVTAAVTAGPTGAADSPQDAVRAVALGLWDATEAHPWLATQLATQLSRTPWGTVAPRIFESLGRQVQAMGVPEAHWFTASSALMHYILGAAGQNAANSASAGPVGADVDRDEFLDTVSTAWEGLDPDAYPFTRAVADQVRGHDDREQFLAGITLVLTGITALHRPGR”, for which the protein production result is reported as “not failed”.
